Legend:
[1] = molecular target: T1, Smc2 (S. cerevisiae condensin subunit) (S. cerevisiae, UniProt P38989 1-1170); assay: cryo-EM structure
T1 sequence: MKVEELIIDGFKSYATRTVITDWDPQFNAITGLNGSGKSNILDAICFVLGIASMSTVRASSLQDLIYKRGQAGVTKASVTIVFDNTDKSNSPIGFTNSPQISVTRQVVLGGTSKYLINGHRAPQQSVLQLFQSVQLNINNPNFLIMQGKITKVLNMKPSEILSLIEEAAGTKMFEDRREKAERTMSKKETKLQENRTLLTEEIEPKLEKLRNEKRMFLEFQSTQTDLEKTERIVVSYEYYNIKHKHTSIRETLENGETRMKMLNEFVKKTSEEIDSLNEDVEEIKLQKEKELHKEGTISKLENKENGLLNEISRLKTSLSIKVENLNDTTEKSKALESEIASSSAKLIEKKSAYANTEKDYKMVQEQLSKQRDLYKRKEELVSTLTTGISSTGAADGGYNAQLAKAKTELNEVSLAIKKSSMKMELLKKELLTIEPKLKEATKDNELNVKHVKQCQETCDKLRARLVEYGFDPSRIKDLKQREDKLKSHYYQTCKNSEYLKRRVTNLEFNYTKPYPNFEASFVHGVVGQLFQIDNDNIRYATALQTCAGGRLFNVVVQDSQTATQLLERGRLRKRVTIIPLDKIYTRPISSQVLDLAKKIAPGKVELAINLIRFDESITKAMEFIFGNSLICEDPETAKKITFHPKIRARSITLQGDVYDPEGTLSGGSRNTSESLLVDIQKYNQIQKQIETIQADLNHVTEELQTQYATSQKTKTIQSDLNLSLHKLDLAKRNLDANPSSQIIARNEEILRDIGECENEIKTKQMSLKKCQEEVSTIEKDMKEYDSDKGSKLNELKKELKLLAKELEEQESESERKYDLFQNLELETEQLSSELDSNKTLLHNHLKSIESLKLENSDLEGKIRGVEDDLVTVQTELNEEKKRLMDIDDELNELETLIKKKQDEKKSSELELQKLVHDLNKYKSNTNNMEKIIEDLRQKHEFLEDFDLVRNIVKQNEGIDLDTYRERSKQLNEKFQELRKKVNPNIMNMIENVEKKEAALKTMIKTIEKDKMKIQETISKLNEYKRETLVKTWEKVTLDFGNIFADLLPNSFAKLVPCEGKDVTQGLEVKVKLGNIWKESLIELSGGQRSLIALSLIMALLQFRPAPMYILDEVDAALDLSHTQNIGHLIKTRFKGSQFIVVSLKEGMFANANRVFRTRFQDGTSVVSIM

[2] = molecular target: T2, Smc4 (S. cerevisiae condensin subunit) (S. cerevisiae, UniProt Q12267 1-1418); assay: cryo-EM structure
T2 sequence: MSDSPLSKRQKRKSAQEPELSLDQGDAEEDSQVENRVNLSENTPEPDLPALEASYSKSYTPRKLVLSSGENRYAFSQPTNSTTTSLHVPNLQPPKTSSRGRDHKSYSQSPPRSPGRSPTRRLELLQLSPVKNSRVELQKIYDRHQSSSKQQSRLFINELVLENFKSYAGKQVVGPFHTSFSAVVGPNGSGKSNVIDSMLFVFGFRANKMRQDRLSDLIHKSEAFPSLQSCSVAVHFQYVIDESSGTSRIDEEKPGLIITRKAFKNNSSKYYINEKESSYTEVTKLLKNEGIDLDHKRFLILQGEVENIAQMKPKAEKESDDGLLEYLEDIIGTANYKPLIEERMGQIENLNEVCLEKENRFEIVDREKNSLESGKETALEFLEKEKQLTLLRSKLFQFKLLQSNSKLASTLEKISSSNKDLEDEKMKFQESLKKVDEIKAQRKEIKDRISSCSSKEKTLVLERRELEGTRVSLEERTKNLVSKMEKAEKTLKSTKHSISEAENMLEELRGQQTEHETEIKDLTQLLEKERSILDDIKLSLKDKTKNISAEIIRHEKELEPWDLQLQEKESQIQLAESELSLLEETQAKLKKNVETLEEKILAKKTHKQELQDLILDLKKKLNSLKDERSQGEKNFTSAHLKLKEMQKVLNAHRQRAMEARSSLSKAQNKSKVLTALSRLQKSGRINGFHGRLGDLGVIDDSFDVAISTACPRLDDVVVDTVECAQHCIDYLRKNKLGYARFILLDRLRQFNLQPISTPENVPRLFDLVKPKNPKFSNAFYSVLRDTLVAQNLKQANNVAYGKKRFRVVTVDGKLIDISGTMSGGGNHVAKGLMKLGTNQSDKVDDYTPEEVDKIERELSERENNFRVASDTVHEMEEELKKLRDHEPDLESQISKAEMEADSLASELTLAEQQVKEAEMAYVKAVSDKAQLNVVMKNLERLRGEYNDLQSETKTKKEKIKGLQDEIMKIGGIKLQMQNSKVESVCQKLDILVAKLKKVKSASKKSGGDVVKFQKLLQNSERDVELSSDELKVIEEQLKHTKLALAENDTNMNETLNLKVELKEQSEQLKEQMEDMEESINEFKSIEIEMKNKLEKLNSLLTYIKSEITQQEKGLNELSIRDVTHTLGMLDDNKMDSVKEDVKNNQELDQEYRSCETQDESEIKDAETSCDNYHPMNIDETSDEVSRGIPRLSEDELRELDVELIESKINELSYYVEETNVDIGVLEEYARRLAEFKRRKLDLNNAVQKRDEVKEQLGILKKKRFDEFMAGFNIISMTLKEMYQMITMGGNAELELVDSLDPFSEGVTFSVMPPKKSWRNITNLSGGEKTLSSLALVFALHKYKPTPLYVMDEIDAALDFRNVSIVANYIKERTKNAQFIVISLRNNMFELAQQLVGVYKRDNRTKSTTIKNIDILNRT

- binding result [1]: binds
- binding result [2]: binds
B1: Brn1 (S. cerevisiae condensin kleisin subunit) (natural protein)
chain: MTTQLRYENNDDDERVEYNLFTNRSTMMANFEEWIKMATDNKINSRNSWNFALIDYFYDLDVLKDGENNINFQKASATLDGCIKIYSSRVDSVTTETGKLLSGLAQRKTNGASNGDDSNGGNGEGLGGDSDEANIEIDPLTGMPISNDPDVNNTRRRVYNRVLETTLVEFETIKMKELDQELIIDPLFKKALVDFDEGGAKSLLLNTLNIDNTARVIFDASIKDTQNVGQGKLQRKEEELIERDSLVDDENEPSQSLISTRNDSTVNDSVISAPSMEDEILSLGMDFIKFDQIAVCEISGSIEQLRNVVEDINQAKDFIENVNNRFDNFLTEEELQAAVPDNAEDDSDGFDMGMQQELCYPDENHDNTSHDEQDDDNVNSTTGSIFEKDLMAYFDENLNRNWRGREHWKVRNFKKANLVNKESDLLEETRTTIGDTTDKNTTDDKSMDTKKKHKQKKVLEIDFFKTDDSFEDKVFASKGRTKIDMPIKNRKNDTHYLLPDDFHFSTDRITRLFIKPGQKMSLFSHRKHTRGDVSSGLFEKSTVSANHSNNDIPTIADEHFWADNYERKEQEEKEKEQSKEVGDVVGGALDNPFEDDMDGVDFNQAFEGTDDNEEASVKLDLQDDEDHKFPIRENKVTYSRVSKKVDVRRLKKNVWRSINNLIQEHDSRKNREQSSNDSETHTEDESTKELKFSDIIQGISKMYSDDTLKDISTSFCFICLLHLANEHGLQITHTENYNDLIVNYEDLATTQAAS

— publication PMC7610691 (Nature structural & molecular biology, 2020)
